Patent US9777044B2, “GLUT-1 as a receptor for HTLV envelopes and its uses” (CENTRE NATIONAL DE LA RECHERCHE SCIENTIFIQUE (CNRS), priority 2003, dated 2017)

What was measured:
293T cells = assay: Glucose consumption of transfected cells; assay type: cell-based, human; details: normalized to cellular protein content
Protocol: Envelope expression and metabolic measurements. 293T cells were transfected with the various envelope expression vectors using a modified version of the calcium phosphate method. After an overnight transfection, cells were washed in phosphate-buffered saline (PBS) and fresh medium was added. Media were harvested at the indicated time points, filtered through a 0.45-μm pore-size filter, and lactate and glucose were measured with enzymatic diagnostic kits (Sigma). Values were normalized to cellular protein content using the Bradford assay (Sigma) after solubilization of cells in lysis buffer (50 mM Tris-HCl pH 8.0, 150 mM NaCl, 0.1% sodium dodecyl sulfate, 1.0% Nonidet P-40, 0.5% deoxycholate) and clarification by centrifugation.

PiT2 = assay: RBD binding to cells overexpressing PiT2
human erythrocytes = assay: RBD binding on freshly isolated human erythrocytes; details: freshly isolated red blood cells
Protocol: Binding assays. Binding assays were carried out as previously described [Manel, 2003]. Briefly, 5×10^5 cells (293T, HeLa, Jurkat or freshly isolated human erythrocytes) were incubated with 500 μl of H1RBD, H2RBD or ARBD supernatants for 30 min at 37° C., washed with PBA (1% BSA, 0.1% sodium azide in PBS), and incubated with a sheep anti-rabbit IgG antibody conjugated to fluorescein isothiocyanate (Sigma). […] Binding was analyzed on a FACSCalibur (Becton Dickinson) and data analysis was performed using CellQuest (Becton Dickinson) and WinMDI (Scripps) softwares.

GLUT-3 = molecular target: T1, GLUT-3 (Homo sapiens, UniProt P11169); assay: RBD binding to cells overexpressing GLUT-3
T1 construct: factor Xa cleavage site + 2x HA + His (pCHIX cassette) (C); expressed in transfected cells; host or cells: 293T cells
T1 sequence (P11169 1-496): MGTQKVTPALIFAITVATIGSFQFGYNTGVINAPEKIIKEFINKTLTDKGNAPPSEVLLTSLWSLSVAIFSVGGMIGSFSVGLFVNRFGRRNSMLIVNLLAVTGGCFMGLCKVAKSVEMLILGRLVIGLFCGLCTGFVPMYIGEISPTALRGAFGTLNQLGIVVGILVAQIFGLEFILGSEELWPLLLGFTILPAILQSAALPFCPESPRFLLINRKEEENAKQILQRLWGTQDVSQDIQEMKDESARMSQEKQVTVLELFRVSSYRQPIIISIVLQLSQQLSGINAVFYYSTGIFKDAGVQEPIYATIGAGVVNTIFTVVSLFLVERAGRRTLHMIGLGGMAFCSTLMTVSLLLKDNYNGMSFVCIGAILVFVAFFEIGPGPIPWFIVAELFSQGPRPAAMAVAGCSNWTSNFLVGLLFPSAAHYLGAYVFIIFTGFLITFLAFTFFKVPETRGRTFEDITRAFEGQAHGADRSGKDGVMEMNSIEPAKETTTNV
Excerpt: In order to directly test the ability of HTLV envelopes to bind GLUT-1, we derived a tagged GLUT-1 expression vector and overexpressed this protein in HeLa cells. […] GLUT-3 is the closest isoform to GLUT-1, and transports glucose with kinetics similar to that of GLUT-1. Thus, we derived a tagged GLUT-3 expression vector. […] To determine if GLUT-1 transfected cells were directly responsible for the observed increased in H1RBD binding, we derived fluorescent tagged GLUT-1 and GLUT-3 to uniquevocally identity GLUT-overexpressing cells in the course of our FACS analysis. […] Consequently, we tested if HTLV glycoproteins directly interact with GLUT-1 proteins. To this end, we evaluated the ability of H1RBD to immunoprecipitate GLUT-1. […] Therefore, the GLUT-1 glucose transporter is an essential component of the HTLV envelope receptor.
(§1) Expression vectors. Full length envelope expression vectors for HTLV-1 (pCEL/2[Denesvre, 1995]) and Friend ecotropic MLV (pCEL/F [Denesvre, 1995]), have been previously described. For the HTLV-2 envelope, a fragment from pHTE2 [Rosenberg, 1998] encompassing the tax, rex and env genes and the 3′ LTR was inserted in the pCSI [Battini, 1999] vector (pCSIX.H2). […]
(§2) Binding assays. […] Binding was analyzed on a FACSCalibur (Becton Dickinson) and data analysis was performed using CellQuest (Becton Dickinson) and WinMDI (Scripps) softwares.

MCT1 and CD147 = assay: RBD binding upon overexpression of MCT1 and CD147; design: species or system human
Excerpt: Extracellular lactate accumulates in cell cultures following its transport across cellular membranes by the MCT1 monocarboxylate transporter [Garcia, 1994]. Because HTLV and MLV share a common organization of the extracellular envelope [Kim, 2000] and the receptors for MLV Env are multispanning metabolite transporters [Overbaugh, 2001], we assessed whether the HTLV RBD bound to MCT1. Moreover, similar to our previous data concerning expression of the HTLV receptor on T cells [Manel, 2003], expression of MCT1 chaperone CD147 [Kirk, 2000] increases during T cell activation [Kasinrerk, 1992].
as §1, §2

B1: H1RBD: first 215 residues of HTLV-1 SU fused to a C-terminal rabbit IgG Fc tag (rFc) (protein)
chain: DYSPSCCTLTIGVSSYHSKPCNPAQPVCSWTLDLLALSADQALQPPCPNLVSYSSYHATYSLYLFPHWIKKPNRNGGGYYSASYSDPCSLKCPYLGCQSWTCPYTGAVSSPYWKFQQDVNFTQEVSRLNINLHFSKCGFPFSLLVDAPGYDPIWFLNTEPSQLPPTAPPLLPHSNLDHILEPSIPWKSKLLTLVQVDVPRDCGCKPCICTVPEVSSVFIFPPKPKDVLTITLTPKVTCVVVDISKDDPEVQFSWFVDDVEVHTAQTQPREEQFNSTFRSVSELPIMHQDWLNGKEFKCRVNSAAFPAPIEKTISKTKGRPKAPQVYTIPPPKEQMAKDKVSLTCMITDFFPEDITVEWQWNGQPAENYKNTQPIMDTDGSYFVYSKLNVQKSNWEAGNTFTCSVLHEGLHNHHTEKSLSHSPGK
Glucose consumption compared to control cells (293T cells): significantly decreased
binding upon overexpression of PiT2 (PiT2): remained at background levels
binding on human erythrocytes (human erythrocytes): strikingly efficient
binding upon GLUT-3 overexpression (GLUT-3; 293T cells, tagged GLUT-3): did not induce any increase
H1RBD binding to cells overexpressing GLUT-3-DsRed2 (GLUT-3; fluorescent tagged GLUT-3, FACS analysis): no effect
H1RBD binding upon separate and combined overexpression of MCT1 and CD147 (MCT1 and CD147): did not result in increased H1RBD binding
